Measured values from the nanobody polyreactivity screen of Harvey et al. (2022).

Assay: yeast display, Sf9 membrane polyspecificity reagent, FACS + sequencing; frameworks hold sequencing errors
In short: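 Genes from sorted yeast were amplified by colony PCR, read by MiSeq 2 × 250 sequencing and filtered on CDR length. These cells carried a synthetic nanobody library in Saccharomyces cerevisiae BJ5465 and were sorted by FACS into low and high (top ~1%) gates on anti-HA and streptavidin fluorescence. Polyreactivity is labelled according to the gate of origin.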

Sequence: QVQLVESGGCKVQAGGSLRISCAASGRIFGYYMGWYRQAPGKEREMVARITFRGGSTYYADSVKGRFTNSRDNAKNNVYLQMNSLKPEDTAVYYCNARGKGGSTNRSDYWGQGTQVTVSS
- polyreactivity (PSR sort gate): high polyreactivity

Sequence: QVQLVETGGGLVQAGGSLRLSCAPSGRTFYYYAMGWYRQAPGKERELVAAISYSVGSTYYADSVKGRFTISRDNAKTTVYLQMNSLKPEDTEVYYCAASRASSSRGEYYYWGQGTLVTVSS
- polyreactivity (PSR sort gate): low polyreactivity

Sequence: QVQLVESGGGLVQAGGSLRLSCAASGPIFKRNAMGWYRQAPGKERELVAAISGSGGRTYYADSVKGRFTISRDNAKYTVYLQMNSLKREDTAVYYCNAGGSYYARGMDYWGQGTQVTVSS
- polyreactivity (PSR sort gate): high polyreactivity

Sequence: QVQLVESGGGLDQAGGSLRLSCAASGNTLNYYTMGWYRQAPGKEREFVAAISWRGSRTYYADSVKGRFTISRDNAKNTVYLQMNRLKQEDTAVYYCATARYGYYGWTPYGDYIFDYWGQGTQVTVSS
- polyreactivity (PSR sort gate): high polyreactivity

Sequence: QVQLVESGGGLVQAGGSLRLSCAASGITFVAYAMGWYRQAPGKERELVAAISYNGGSTNYADSVKGRFTISRDNAKNTVYLQMNSLKPEDTAVYYCAADLAEFYPRFNYWGQGTQVTVSS
- polyreactivity (PSR sort gate): low polyreactivity

Sequence: QVQLVESGGGLVQAGGSLRLSCAASGFIFGIYAMGWYRQAPGKEREFVAAITGSAGSTYYADSVKGRFTISRDNAKNTVYLQMNSLKPEDTAVYYCAAVLRTHRYGGYNYWGQGSQVTVSS
- polyreactivity (PSR sort gate): low polyreactivity

Sequence: QVQLVESGGGLVQAGGSLRLSCAASGRTIRYNALGWYREARGKERELVASIRRGGSTNYADSVKGRCTISRDNAKNPVYLHMNSLKPEDTAVSYCAAAGGGVRKVWGGSRYGYWGQGTQVTVSS
- polyreactivity (PSR sort gate): high polyreactivity

Sequence: QLQLVESGGGLVQAGGSLRLSCAASGSILYIKTMGWYRQAPGKERELVAAITYSGGSTYYADAVKGRFTISRDNAKNTVYLQMTSLKPEDTAVYYCAADGYYGGFNYWGQGTQVTVSS
- polyreactivity (PSR sort gate): low polyreactivity

Sequence: QDQLVESGGGLVQAGGSLRLSCAASGIISYKNVMGWYRQAPGKERELDAAITSGGSTNYADSVKGRFTISRDNAKNTVYLQMNSLKPEDTAVYYCAARYYGSYGKQPRARYGYWGQGTQVTVSS
- polyreactivity (PSR sort gate): high polyreactivity

Sequence: QVQLVESGGGLVQARGSLRLSCAASGITFGRNTMGWYRQAPGKERELVAAIDSGGNTYADSVKGRFTISRDNAKNTVYLQMNSLKPDDTAVYYCAVDGGEFSSYGYWGQGTQVTVSS
- polyreactivity (PSR sort gate): low polyreactivity

Sequence: QVHLVESGGGLVQAGGSLRLSCAASGSTFRVYAMGWYRQAPGKERELVARISITGGTTRYADSVKGRFTISRDNAKNTVYLQMNSLKPEDTAVYYCNADYDWYYWYLYKYPFDYWGQGTQVTVSS
- polyreactivity (PSR sort gate): low polyreactivity

Sequence: QVQLLESGGGLLQAGASLLLSCAASGNIFYRNAMGWYRQAPGKERELVAAISSGGITYYADSVKGRYTISRDNAKNSVSLQMNSLKPEDTAVYYCAAYIRNWRATYEYWGQGSQVTVSS
- polyreactivity (PSR sort gate): high polyreactivity

Sequence: QVQLVESGGVLVQAGGSLRLTCAASASILYVYAMGWYRHAPGKERELVATITGRVVSTNYADSVKGRFTSSRDNAKNTVYLQMNSLKTEDTALYYCAASTRRRRGEYDYCGQGTQVTVSS
- polyreactivity (PSR sort gate): high polyreactivity

Sequence: QVQLVESGGGLVQAGGSLRLSCAASGSNFDYNTMGWYRQAPGKEREFVAAISSSGGGTSYADSVKGRFTISRDNAKNTVYLQMNSLKPEDTAVYYCAALIKLTPYQRQYWKYRAYYYGGQGTQVTVSS
- polyreactivity (PSR sort gate): high polyreactivity

Sequence: QVQLVESGGGLVQAGGSLRLSCAASGSTIDVYTMGWYRQAPGKERELVAAISRGSSTYYADSVKGRFTISRDNAKNTVYLQMNSLKPEDTAVYYCNAVTSRKYRRYGYGYWGQGTQVTVSS
- polyreactivity (PSR sort gate): high polyreactivity

Sequence: EVHLLESGGGLVQAGGSLRLSSAASGFTFACNAMGWYRQAPGKERELVAALTWGDNSTYYADSVKGRFTISRDNAKNTVYLQMNSLKQEDTAVYYCGARVTHWYYLFGYDYWGQGTQVTVSS
- polyreactivity (PSR sort gate): low polyreactivity

Sequence: QVHLVESGGGLVQAGGSLRLSCAASGRIFDYYTMGWYRQAPGKERELVAAITWIGGSTYYEDSVKGRFTISRDNAKNTVYLQMNSLKPEDTAVYYCYAEGTALPYRADTVGGYYYWGQGTQVTVSS
- polyreactivity (PSR sort gate): low polyreactivity

Sequence: QVQLVESGGGIVQAGGSLRLSCAASGIIFDVYAMGLYRQAPGTERELVAAISKRGGRTYYADSVKWRFTISRDNAKNTVYLQMNSLKPEDTAVYYCAADGQYKHFDYWGQGTQVTVSS
- polyreactivity (PSR sort gate): high polyreactivity

Sequence: QVQLVESGGCLVQAGGSLRLSCAASGSTYKLNAMGWYRQAPGKEREMVAAISRGGRTNYADSVKGRFTISRDNAKNTVYFQMNSLNPEDTAVYYCAKDVAGLFHVGALYYYWGQGSQVTVSS
- polyreactivity (PSR sort gate): low polyreactivity

Sequence: QVQHVESGGGLVQAGGSLRLSCASSGRTFYEYAMGWYRQAPGKERELVAGITSGGSTNYADSVKGRFTISRDNAKNTVYLQMNSLKPEDTAVYYCAASYWGYEYDYWGQGTQVTVSS
- polyreactivity (PSR sort gate): low polyreactivity

Sequence: QVQHVESGGGLVQAGRSLRLSCAASGLIYPYVMGWYRQAPGKERELVAAISRSGGRTYYADSVKGRFTISRDNAKNTVYLQMNSLKPEDTAVYYCAAKVDVTGYFDYWGQGTQVTVSS
- polyreactivity (PSR sort gate): high polyreactivity

Sequence: QVQLVESGGGLVQAGGSLRLSCAASGFIFANYGMGWYRQAPGKERELVAAISSGGRTYYADSVKARFTISRDNAKNTVYFQMNSLQPEDTAVYYCAAVVRRYNAEDYWGQGTQVTVSS
- polyreactivity (PSR sort gate): high polyreactivity

Sequence: QVQLVDSGGGLVQAGGSLRLSCAASGLIFEVYAMGWYRQAQGKERELVAAISWRGGSTDYADSVKGRFTISRDNAKNTVYLQMNSLKPEDTAFYYCAKGYRGRTTAGNLWEFDYWGQGTQVTVSS
- polyreactivity (PSR sort gate): high polyreactivity

Sequence: QVQLVESGGGLVQSGGSLRLSCAASGNTFTFYAMGWYRQAPGKERELVAVISQIADGCTYYADSVKGRFTISRDNSKNSVYLQMNSLKPEDTAVYYCIAQTWDEYWGQGTQVTVSS
- polyreactivity (PSR sort gate): low polyreactivity

Sequence: QVQLVESGGGLVQAGGSLRLSCAASGITFRYYAMGWYRQAPGKERELVADINRGSDTNYADSVKGRFTISRDNAKNTVYLQMNSLKPEDTAVYYCNAYWQGYGYDYWGQGTQVTVSS
- polyreactivity (PSR sort gate): low polyreactivity

Sequence: QVQLVESGGGLDQAGGSLRLSCAASGSIFRRYTMGWYRQAPGKERELVAAISRVGNTNYADSVKGRITISRDNAKNTVYFQMNSLKPEDTEVYYCAARAIGYRYTPGLNYWGQGTQVTVSS
- polyreactivity (PSR sort gate): high polyreactivity

Sequence: QVQLVESGGGLVQAGGSLRLSCAASGLTFSAYAMGWYRQAPGKERELVAAITTGGGRTYYADSVKGRFTISRDNAKNTVYLQMNSLKPEDTAVYYCNTLRAYWTYHFYGAVRDGYDYWGQGTKVTVSS
- polyreactivity (PSR sort gate): low polyreactivity

Sequence: QVQLVESGGGLVQAGGSLRLSCAASGSTFEDYVMGWYRQAPGKERELVAAITSGDNTKYADSVKGRFTISRDNAKNTVYLQMNSLKPEDTAVYYCNADFPDVRSEYDYWGQGTQVTVSS
- polyreactivity (PSR sort gate): high polyreactivity

Sequence: QVQLVESGGGLVQAGGSLRLSCAASGSTFRYNAMGWYRQAPGKERELVAAITSSGSRTYYADSVKGRFTISRDNAKNTVYFQMISLKPEDTAVYYCAAYGYYTKVTKYDYWGQGTQVTVSS
- polyreactivity (PSR sort gate): high polyreactivity

Sequence: QVQRVESAGGLVQARGSLRLSCAASGRIFYYNAMGWYRQAPGKEREFVAAITSVGSTNYADSVKGLFTISRDNAKNTVYLQMNSLKPEDTAVYYCARASAWYVTLVGKYTKYDYWGQGTQVTVSS
- polyreactivity (PSR sort gate): low polyreactivity

Sequence: QVQLVESGGGLVQAGGSLRLSCAASGRSFDRNAMGLYRQAPGKERELVADITSIGTRTYYADSVKGRFTISRDNAKNSVYLQMNSLKPEDTAVYYCAADYYYSYWYWFSSSYGYWGQGTQVTVSS
- polyreactivity (PSR sort gate): high polyreactivity

Sequence: QVQLVESGGGLVHAGGSLRLSCAASGLTFGAYAMGWYRQAPGEERELVATITNSGRTYYADSVKGRFTISRDNAKNTVYLQMNSLKPEDTAVYYCAAQPDGQAMDHWGQGTQVTVSS
- polyreactivity (PSR sort gate): low polyreactivity

Sequence: QFQLVESGGGLVQAGGSLRISCAASGITLRRNAMGWYRQAPGKEREWVAAISWSGGRTYYADSVKGRFTISRDNAKNTVYLQMNSLKPEDTAVYYCAARGYPLTAFDYWGQGTQVTVSS
- polyreactivity (PSR sort gate): high polyreactivity

Sequence: QVQLVESGGGLVQAGGSLRLSCAASGSIFDYYAMGWYRQAPGKERELVASINSSGTGTYYADSVKGRFTISRDNAKNTVYLQMNSLKPEDTAVYYCATRQAVGYSSGRGYGYWGQGTQVTVSS
- polyreactivity (PSR sort gate): low polyreactivity

Sequence: QVQLVESGGGLVQAGGSLRISCAASGSNSNANAMGWYRQAPGKQREFVADISRSRGRTYYADSVKGRFTISRDNAKYTVYLQMNSLKPEVTAVYYCAAGGFGAGNNYWGQGTQVTVSS
- polyreactivity (PSR sort gate): high polyreactivity

Sequence: QVQLVESGGGLVQAGGSLRLSCAASGSTFYVYDMGWYRQAPWKERELVAAISSGAGSTYYADSVKGRFTSSRDNAKNTVYLKLNSLKRKIPRSITALLFTVNGGGSRSHDYWAQGTQVTVSS
- polyreactivity (PSR sort gate): low polyreactivity

Sequence: QVQLVESGAGLVQAGGSLRLSCDASGLIFAGYAMGWYRQAPGTERELVAAITWRGGRTYADSVKGRFTISRDNAKNTVYLQINSLKPEDTAVYYCNKDPWYVFHPRGQFLFDYWGQGTQVTVSS
- polyreactivity (PSR sort gate): low polyreactivity

Sequence: QVQLVESGGGLVQAGGSLRLSCAASGSTFFVANAMGWYRQSPGKERELVAAISPSGGSTYYADSVKGRFTISRDNAKNTVYLQMNSLKPEDTAVYYCATSVRRFTRRYDYWGQGTQVTVSS
- polyreactivity (PSR sort gate): high polyreactivity

Sequence: QVQLVESGGGLVQAGGSLRLSCAASGGTFAEYVMGRYRQAPGKERELVAAIDWSGGSTYYADSVKGRFTISRDNAKNTVYFQMNSLKPEDTALYYCAKGPGYGFYKLMSYDSWGQGTQVTVSS
- polyreactivity (PSR sort gate): low polyreactivity

Sequence: QVQLVESGGGLVQAGGSLRLSCAASGSTSQYYAMGWYRQAPGKERELVAVISWSGGSTYYADSVKARFTISRDNAKNTVYLEMNSLKPEDTAVYYCAARYRRRVIATRDYWGQGTQVTVSS
- polyreactivity (PSR sort gate): high polyreactivity

Sequence: QVQLVESGGGLVQAGGSLRLSCAASGFIFGYNAMGWYRQAPGKERELVAAMDWSGTSTYYADSVKGRFTISRDNAKNTVYLQMNSLKPEDTAVYYCAKVSRRGIVGYWGQGTQVTVSS
- polyreactivity (PSR sort gate): high polyreactivity

Sequence: QLQLVESGGGLFQAGGSLRISCAPSGRIFKLNAMGWYRQAPGKEMELVAAINSGTRTYYADSVKGRFTISSYNAKNTVYLQLNSLKPEDTAVYYCAAEGVWWYSRYDYWGQGTQVTVSS
- polyreactivity (PSR sort gate): high polyreactivity

Sequence: QVQLVESGGGLVQAVGSLRLTCAASGITFLNYAMGWYRQAPGKERELVSAISWSGGRTYYAVSVKGRFTISRDYAKNTVYLQMNSLKPEDTAVYYCATVYVRYRQSRLIRYGYWGQGTQVTVSS
- polyreactivity (PSR sort gate): high polyreactivity
